Results: article PMC4720780, “Fruit Ripening Regulation of α-Mannosidase Expression by the MADS Box Transcription Factor RIPENING INHIBITOR and Ethylene”

Target: RIN (RIPENING INHIBITOR, MADS box) (Solanum lycopersicum, UniProt Q8S4L4 1-242)
Test: EMSA; 10 mM MgCl2; 20 mM HEPES pH 7.5, 20% glycerol, 0.05 ug poly(dI-dC), 10 mM MgCl2, 2.5 mM EDTA, 2.5 mM DTT, 25 mM NaCl, 25 C, 30 min; 6% native PAGE 0.5x TBE
Conditions: protein: recombinant; chain copies: 2; label: 32P (alpha-32P dCTP Klenow fill-in); filled-in ends

Chain of RIN (RIPENING INHIBITOR, MADS box) (Q8S4L4 entry or part of it): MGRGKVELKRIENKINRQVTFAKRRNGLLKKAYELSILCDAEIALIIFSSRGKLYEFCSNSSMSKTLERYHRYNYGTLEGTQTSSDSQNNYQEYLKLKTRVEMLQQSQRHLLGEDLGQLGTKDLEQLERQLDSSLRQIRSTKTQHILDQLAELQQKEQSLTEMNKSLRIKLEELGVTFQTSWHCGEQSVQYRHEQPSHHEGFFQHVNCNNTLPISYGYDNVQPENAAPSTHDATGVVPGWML

B1: alpha-Man promoter fragment MD4 (187 bp) (dsDNA)
DNA 1: GAAGACTTCACAAATCTTGATTTTTGAATACGACCCTTTAGTATTAAGTTTTCCAATTAATCTTGTAGGTCCATTGGCTTTGATTCCCTTTCTTGATTTATCTACAAAAATTTAGGCTATTTATAGAGATTTGGGGTTTATGGTTTAGTACATTCTCTTTCAGTGAACACTCTCAGCAATGGTGGAA
DNA 2: TTCCACCATTGCTGAGAGTGTTCACTGAAAGAGAATGTACTAAACCATAAACCCCAAATCTCTATAAATAGCCTAAATTTTTGTAGATAAATCAAGAAAGGGAATCAAAGCCAATGGACCTACAAGATTAATTGGAAAACTTAATACTAAAGGGTCGTATTCAAAAATCAAGATTTGTGAAGTCTTC
**Q.** Does B1 bind?
**A.** Result: binds
